Data taken from US20100150950A1, “HUMAN ANTIBODIES THAT BIND CD70 AND USES THEREOF” (Medarex, Inc., priority 2006, published 2010).

T1: CD70 expressed on the surface of Raji lymphoma cells (Homo sapiens, UniProt P32970)
T1 construct: endogenous in cells; host or cells: Daudi (ATCC CCL-213), HuT 78 (TIB-161), Raji (CCL-86), Granta 519 (DSMZ 342)
T1 sequence (P32970 1-193): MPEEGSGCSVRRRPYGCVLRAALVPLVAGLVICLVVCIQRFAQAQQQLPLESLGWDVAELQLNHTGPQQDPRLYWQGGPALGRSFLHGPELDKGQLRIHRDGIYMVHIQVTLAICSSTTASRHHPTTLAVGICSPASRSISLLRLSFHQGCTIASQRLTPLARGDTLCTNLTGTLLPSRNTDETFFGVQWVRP


Columns and labels:
[1] = biological target: T1, CD70 expressed on the surface of Raji lymphoma cells; assay: Flow cytometry binding to Raji cells; settings: antibody 10 μg/ml
Experimental: Anti-CD70 antibodies were tested for binding to lymphoma cells expressing CD70 on their cell surface by flow cytometry.
The lymphoma cell lines Daudi (ATCC Accession No. CCL-213), HuT 78 (ATCC Accession No. TIB-161) and Raji (ATCC Accession No. CCL-86) were each tested for antibody binding. Binding of the HuMAb 2H5 anti-CD70 human monoclonal antibody was assessed by incubating 1×10^5 cells with 2H5 at a concentration of 1 μg/ml. The cells were washed and binding was detected with a FITC-labeled anti-human IgG Ab. […] Flow cytometric analyses were performed using a FACSCalibur flow cytometry (Becton Dickinson, San Jose, Calif.). The anti-CD70 monoclonal antibody 2H5 bound to the lymphoma cell lines Daudi, HuT 78 and Raji, as measured by the mean fluorescent intensity (MFI) of staining.
The lymphoma cell lines Raji and Granta 519 (DSMZ Accession No. 342) were tested for binding of the HuMAb anti-CD70 human monoclonal antibody 2H5 at varying concentrations. Binding of the anti-CD70 human monoclonal antibodies was assessed by incubating 5×10^5 cells with antibody at a starting concentration of 50 μg/ml and serially diluting the antibody at a 1:3 dilution. An isotype control antibody was used as a negative control. The cells were washed and binding was detected with a PE-labeled anti-human IgG Ab. […]

[2] = system: monkey rhesus CD70+ B lymphoma cell line LCL8664; assay: FACS cross-reactivity with rhesus B lymphoma cells; assay type: binding; settings: antibody 1 μg/ml
Experimental: FACS analysis was also employed to access the ability of the anti-CD70 antibody 69A7 cross reacting with the monkey rhesus CD70+B lymphoma cell line, LCL8664 (ATCC#: CRL-1805). Binding of the HuMAb 69A7 anti-CD70 human monoclonal antibody was assessed by incubating 1×10^5 cells with 69A7 at a concentration of 1 μg/ml. The cells were washed and binding was detected with a FITC-labeled anti-human IgG Ab. An isotype control antibody was used as a negative control. Flow cytometric analyses were performed using a FACSCalibur flow cytometry (Becton Dickinson, San Jose, Calif.).

[3] = system: 786-O human renal cancer cell line; assay: Internalization by immunofluorescence staining; assay type: cell-based
Experimental: The 786-O human renal cancer cell line was used to test the internalization of HuMab anti-CD70 antibodies 69A7 and 2H5 upon binding to the cells using immuno-fluorescence staining. 786-O cells (1×10^4 cells per 100 μl per well in a 96-well plate) were harvested from a tissue culture flask by treatment with 0.25% Trypsin/EDTA, then incubated with each of the HuMab anti-CD70 antibodies at 5 μg/ml in FACS buffer (PBS+5% FBS, media) for 30 minutes on ice. A human IgG1 isotype control was used as a negative control. Following 2 washes with media, the cells were re-suspended in the media (100 μl per well) and then incubated with goat anti-human secondary antibody conjugated with PE (Jackson ImmunoResearch Lab) at 1:100 dilution on ice for 30 minutes. The cells were either immediately imaged for morphology and immunofluorescence intensity under a fluorescent microscope (Nikon) at 0 min or incubated at 37° C. for various times. […] Similar results were also obtained with FITC-direct conjugated HuMab anti-CD70 antibodies in the assays. […] At the 120 min timepoint, membrane fluorescence was not apparent, but instead appeared to be present in intracellular compartments.

activated human B cells = assay: Binding to and ADCC of activated human B cells (51Cr); assay type: cell-based
Experimental: In this study, a HuMAb anti-CD70 antibody and the nonfucosylated form were tested for their ability to mediate ADCC effects on human B cells. Frozen human spleen cells were thawed and B cells were negatively purified by magnetic beads. Purified B cells were cultured at 2×10^6/ml in RPMI+10% FBS supplemented with NEAA, sodium pyruvate, β-ME and penicillin/streptomycin. B cells were activated by 10 μg/ml of LPS and 5 μg/ml anti-CD40 for 3 days. The cells were harvested, washed and an aliquot was stained with biotin conjugated nonfucosylated 2H5 (2H5 NF-bio)+streptavidin-APC. Human peripheral blood mononuclear effector cells were purified from heparinized whole blood by standard Ficoll-Paque separation and cultured overnight in of 50 U/ml IL-2. The activated B cells were labeled with 100 μCi of Na2 ^51CrO4 (Perkin Elmer, Wellesley, Mass.) per 1×10^6 cells for 1 hour. Effector cells were added to labeled target cells at a ratio of […] in the presence of serial dilutions of 2H5 and 2H5 NF (non-fucosylated). In addition, the test articles were assayed at 10 μg/ml in the presence of 20 μg/ml murine anti-CD 16 antibody 3G8 or mouse isotype control antibody. Following […] for 4 hours at 37° C., cells were centrifuged and the supernate was read on the Cobra II auto-gamma counter (Perkin Elmer) with a reading window of 240-400 KeV. The percent specific lysis was calculated as: (experimental release−spontaneous release)/(maximal release−spontaneous release)×100 where: (i) target cells with no effector cells and no antibody control for spontaneous release and (ii) target and effector cells in presence of 3% Lysol detergent control for maximal release. Percent specific lysis was plotted against antibody concentration and the data was analyzed by non-linear regression, sigmoidal dose response (variable slope) using GraphPad Prism™ 3.0 software (San Diego, Calif.).

| Molecule | binding to Raji cells (MFI) [1] | cross-reactivity with monkey CD70+ B lymphoma cells [2] | membrane fluorescence intensity ([3]; 30 min incubation at 37° C.) | membrane fluorescence ([3]; 120 min timepoint) | internalization upon binding ([3]; antibody 5 μg/ml, 37° C.) | potency relative to 2H5 (activated human B cells; ADCC of activated human B cells) | activated B cells bound (activated human B cells; biotin conjugated 2H5 NF + streptavidin-APC, FACS) [%] | lysis of activated human B cells (ADCC) (activated human B cells; effector to target 1:100 as printed, 4 hours) |
| --- | --- | --- | --- | --- | --- | --- | --- | --- |
| anti-CD70 human monoclonal antibody 69A7 (antibody, V domains shown, Human IgG from hybridoma; also called HuMAb 69A7; FITC-conjugated 69A7) VH: QVQLQESGPGLVKPSETLSLTCTVSGGSVSSDYYYWSWIRQPPGKGLEWLGYIYYSGSTNYNPSLKSRVTISVDTSKNQFSLKLRSVTTADTAVYYCARGDGDYGGNCFDYWGQGTLVTVSS VL: EIVLTQSPATLSLSPGERATLSCRASQSVSSYLAWYQQKPGQAPRLLIFDASNRATGIPARFSGSGSGTDFTLTISSLEPEDFAVYYCQQRSNWPLTFGGGTKVEIK | bound | cross-reacts | significantly decreased | not apparent | specifically internalized | – | – | – |
| 2H5 NF: 2H5 HuMAb lacking fucosyl residues, expressed in CHO cell line Ms704-PF (antibody, V domains shown) VH: QVQLVESGGGVVQPGRSLRLSCAASGFTFSSYIMHWVRQAPGKGLEWVAVISYDGRNKYYADSVKGRFTISRDNSKNTLYLQMNSLRAEDTAVYYCARDTDGYDFDYWGQGTLVTVSS VL: EIVLTQSPATLSLSPGERATLSCRASQSVSSYLAWYQQKPGQAPRLLIYDASNRATGIPARFSGSGSGTDFTLTISSLEPEDFAVYYCQQRTNWPLTFGGGTKVEIK | – | – | – | – | – | approximately 10 fold | ~60 | induced lysis |
